The text below walks through data of US20220112262A1 (CASE WESTERN RESERVE UNIVERSITY, published 2022).

In the assay the target is T1, FLAG epitope-tagged holoreceptor of human type 1 insulin-like growth factor receptor (hIGFR) (human, UniProt P08069 31-1367).
T1 construct: The holoreceptor was captured on 96 well plates coated with anti-FLAG monoclonal antibody; also called IGF-R1; IGF-1R
Description: competitive displacement of 125I-labeled human insulin from plate-captured FLAG-tagged hIGFR.

T1 sequence (P08069 31-1367 limits assumed): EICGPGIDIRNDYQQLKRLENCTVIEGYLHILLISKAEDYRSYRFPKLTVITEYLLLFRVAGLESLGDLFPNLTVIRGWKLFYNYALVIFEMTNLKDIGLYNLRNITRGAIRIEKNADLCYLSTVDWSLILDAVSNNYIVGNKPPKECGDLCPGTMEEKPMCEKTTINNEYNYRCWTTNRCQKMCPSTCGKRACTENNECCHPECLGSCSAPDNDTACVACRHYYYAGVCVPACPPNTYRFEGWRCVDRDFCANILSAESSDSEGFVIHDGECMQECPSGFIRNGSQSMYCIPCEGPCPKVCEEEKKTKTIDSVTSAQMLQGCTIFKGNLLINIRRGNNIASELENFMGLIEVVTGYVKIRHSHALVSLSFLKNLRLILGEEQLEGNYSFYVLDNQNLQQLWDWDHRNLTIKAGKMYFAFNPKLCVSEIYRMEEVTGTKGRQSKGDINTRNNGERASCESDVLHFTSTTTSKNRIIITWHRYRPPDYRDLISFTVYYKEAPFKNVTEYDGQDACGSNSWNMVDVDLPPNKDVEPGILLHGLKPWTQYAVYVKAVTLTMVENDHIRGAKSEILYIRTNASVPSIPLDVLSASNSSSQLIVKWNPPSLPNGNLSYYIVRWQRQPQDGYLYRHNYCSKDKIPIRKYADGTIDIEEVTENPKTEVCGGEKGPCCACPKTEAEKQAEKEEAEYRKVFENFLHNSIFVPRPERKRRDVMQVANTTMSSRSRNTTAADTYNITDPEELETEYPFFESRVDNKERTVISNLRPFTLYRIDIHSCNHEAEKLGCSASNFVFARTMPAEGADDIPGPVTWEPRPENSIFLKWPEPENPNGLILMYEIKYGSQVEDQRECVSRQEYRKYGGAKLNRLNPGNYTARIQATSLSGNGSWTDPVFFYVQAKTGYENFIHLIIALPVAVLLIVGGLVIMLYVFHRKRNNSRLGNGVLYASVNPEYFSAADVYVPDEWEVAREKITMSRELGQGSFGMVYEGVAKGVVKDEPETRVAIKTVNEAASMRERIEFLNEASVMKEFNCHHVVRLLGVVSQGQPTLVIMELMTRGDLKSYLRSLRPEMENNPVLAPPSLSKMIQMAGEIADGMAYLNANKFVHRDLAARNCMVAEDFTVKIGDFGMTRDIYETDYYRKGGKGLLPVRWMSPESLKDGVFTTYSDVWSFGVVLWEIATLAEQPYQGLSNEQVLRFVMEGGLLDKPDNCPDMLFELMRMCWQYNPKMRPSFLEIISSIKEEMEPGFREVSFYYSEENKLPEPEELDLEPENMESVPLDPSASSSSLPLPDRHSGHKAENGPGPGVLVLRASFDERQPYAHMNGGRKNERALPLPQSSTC

B1: des-[B1, B2], Glu^B3, His^A8, Glu^A14, Gln^A17, des-B30-insulin (T-0706) (ligand)
chain 1: GIVEQCCHSICSLEQLQNYCN
chain 2: EQHLCGSHLVEALYLVCGERGFFYTPK
modifications: not fully specified
notes: Formulated without zinc; also called HA8 EA14 QA17 des[B1-B2]; EB3 desB30
With B1, the “Binding Affinity” value was 0.16 and the “IGF1-R (Rel. Aff.), relative to insulin lispro” value turned out to be 18%.
